Experiment [1] addresses T1, full-length 30 amino acid CALR mutant neoepitope peptide (peptide used for immunisation) (human).
T1 construct: also called full-length peptide
T1 peptide: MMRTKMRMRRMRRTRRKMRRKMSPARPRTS
The experiment can be described thus: Scatchard analysis, 125I-labelled and unlabelled 4D7 on plate-bound full-length peptide; right plot of three replicates, R2= 0.994. Here is the method:
(§1) A. Western blot screening of various mutant CALR antibody clones produced from hybridomas in TF-1 TpoR and TF-1 TpoR CALR^del61. Varying levels of intensity can be observed, compared to commercial Dianova monoclonal mutant CALR antibody. 4D7 is able to detect mutant CALR protein in CALR^del61 cells but not in CALR wild type TF-1 cells. B. Replicate Scatchard analyses of 4D7 using I¹²⁵-labelled and unlabelled 4D7 bound to full-length peptide (n=3). C. […] Cells were cultured in the presence or absence of 10 ng/ml TPO (n=3). D. Paracrine CALR-mutant protein is not sufficient to maintain TPO sensitive cells in culture. TF1 TpoR and TF-1 TpoR CALR^del61 cells were seeded at the same density and cultured in the presence or absence of TPO. […] Cell populations on either side of the membrane were counted every 24 hours over 4 days in triplicate and representative images were taken on day 4. […] E. Histogram overlays showing fluorescence intensity of unstained and PE conjugated IgG2a isotype control in TF-1, TF-1 TpoR and TF-1 TpoR CALR^del61 compared to 4D7 conjugated to PE.
(§2) 4D7 was radio-iodinated with ¹²⁵I (Perkin-Elmer) using Pierce Pre-Coated Iodination tubes (Thermo Scientific) with an estimated specific activity of 7733cpm/ng. […] 200 μL aliquots from each well were counted on a PerkinElmer 2470 Wizard2 Automatic Gamma Counter. Dissociation constants were calculated using the EBDA and LIGAND programs.

Experiment [2] addresses T1, full-length 30 amino acid CALR mutant …. The experiment is described as follows: 125I-Scatchard analysis, saturation binding of 125I-4D7 to plate-coated peptide. Here is the method:
4D7 was radio-iodinated with ¹²⁵I (Perkin-Elmer) using Pierce Pre-Coated Iodination tubes (Thermo Scientific) with an estimated specific activity of 7733cpm/ng. For saturation binding assays, plates were coated overnight at 4° C. with full-length neoepitope CALR peptide (2 μg/mL) or control scrambled peptide (2 μg/mL). Wells were washed 3 times with phosphate buffered saline+0.05% Tween20, blocked with 5% bovine serum albumin for 1 hour followed by further washing. ¹²⁵I-4D7 was added at concentrations ranging from 2 pM to 2.5 nM in triplicate and incubated at room temperature for 2 hours. After washing, 1M HCl was added for 30 minutes to elute bound antibody. 200 μL aliquots from each well were counted on a PerkinElmer 2470 Wizard2 Automatic Gamma Counter. Dissociation constants were calculated using the EBDA and LIGAND programs.

Experiment [3] concerns the target T2, wild type calreticulin (CALR) (human, UniProt P27797 18-417).
T2 construct: also called CALR^WT; endogenous wild type CALR
T2 sequence (looked up): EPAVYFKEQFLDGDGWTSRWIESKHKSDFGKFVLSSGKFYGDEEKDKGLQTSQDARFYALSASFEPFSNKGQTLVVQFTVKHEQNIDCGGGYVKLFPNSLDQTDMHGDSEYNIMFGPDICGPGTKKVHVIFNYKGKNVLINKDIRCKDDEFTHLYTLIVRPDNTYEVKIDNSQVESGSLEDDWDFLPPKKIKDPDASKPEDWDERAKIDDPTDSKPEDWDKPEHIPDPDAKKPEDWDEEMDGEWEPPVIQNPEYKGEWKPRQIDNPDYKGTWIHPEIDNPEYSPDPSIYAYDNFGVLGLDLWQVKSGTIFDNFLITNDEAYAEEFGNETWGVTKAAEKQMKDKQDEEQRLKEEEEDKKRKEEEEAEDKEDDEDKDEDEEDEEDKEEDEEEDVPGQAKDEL
The experiment can be described thus: Western blot of TF-1 cell extracts (hybridoma clone screen). Here is the method:
B. Replicate Scatchard analyses of 4D7 using I¹²⁵-labelled and unlabelled 4D7 bound to full-length peptide (n=3). C. […] Cells were cultured in the presence or absence of 10 ng/ml TPO (n=3). D. Paracrine CALR-mutant protein is not sufficient to maintain TPO sensitive cells in culture. TF1 TpoR and TF-1 TpoR CALR^del61 cells were seeded at the same density and cultured in the presence or absence of TPO. Cells were separated by semi-permeable membrane in a horizontal co-culture system. Cell populations on either side of the membrane were counted every 24 hours over 4 days in triplicate and representative images were taken on day 4. Exogenous CALR secreted by TF-1 TpoR CALR^del61 was unable to assist growth of factor dependent TF-1 TopR cells (n=3). E. Histogram overlays showing fluorescence intensity of unstained and PE conjugated IgG2a isotype control in TF-1, TF-1 TpoR and TF-1 TpoR CALR^del61 compared to 4D7 conjugated to PE.
For immunoblotting of total lysates, cells were lysed in NP40 buffer containing 150 mM NaCl, 50 mM Tris pH 7.6, 1% NP-40, supplemented with protease inhibitors (Complete, Roche) and phosphatase inhibitor cocktails, and boiled for 5 minutes after addition of sample buffer (60 mM Tris pH 6.8, 5% glycerol, 1% SDS, 2% β-mercaptoethanol, 0.02% bromophenol blue) before SDS gel electrophoresis followed by Western blotting (Tvorogov et al, 2010). […]

Experiment [4] has as its target T1, full-length 30 amino acid CALR mutant …. The experiment is described as follows: Scatchard analysis, 125I-labelled and unlabelled 4D7 on plate-bound full-length peptide; middle plot of three replicates, R2= 0.9926. Here is the method:
as §1, §2

The target in experiment [5] is T3, thrombopoietin receptor (TpoR) (UniProt P40238 26-635, limits assumed).
T3 construct: whole, on cells; It was immunoprecipitated with anti-FLAG beads, so the expressed TpoR evidently carries a FLAG tag; The construct and the position of the tag are not described; also called TPO receptor
T3 sequence (looked up): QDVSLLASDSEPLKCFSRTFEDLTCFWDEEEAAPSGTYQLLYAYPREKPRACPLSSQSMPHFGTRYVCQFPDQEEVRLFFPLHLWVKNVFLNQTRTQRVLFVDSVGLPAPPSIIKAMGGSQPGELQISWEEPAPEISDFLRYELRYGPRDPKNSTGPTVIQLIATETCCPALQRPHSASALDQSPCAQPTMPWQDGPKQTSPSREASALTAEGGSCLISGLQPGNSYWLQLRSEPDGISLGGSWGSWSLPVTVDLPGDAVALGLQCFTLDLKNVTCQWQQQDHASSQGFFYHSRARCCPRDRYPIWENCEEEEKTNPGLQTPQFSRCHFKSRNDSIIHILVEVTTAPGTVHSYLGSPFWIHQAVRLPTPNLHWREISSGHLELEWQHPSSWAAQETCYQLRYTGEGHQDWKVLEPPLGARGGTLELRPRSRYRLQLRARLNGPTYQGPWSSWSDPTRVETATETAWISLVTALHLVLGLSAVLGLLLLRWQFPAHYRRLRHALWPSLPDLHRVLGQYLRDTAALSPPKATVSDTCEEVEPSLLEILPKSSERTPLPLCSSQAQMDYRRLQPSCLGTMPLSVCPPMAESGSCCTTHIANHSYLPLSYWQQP
The experiment can be described thus: flow cytometry on TF-1 TpoR cells (TpoR with endogenous wild type CALR).

The target in experiment [6] is T1, full-length 30 amino acid CALR mutant …. The experiment can be described thus: Scatchard analysis, 125I-labelled and unlabelled 4D7 on plate-bound full-length peptide; left plot of three replicates, R2= 0.9794. Here is the method:
as §1, §2

The target in experiment [7] is T2, wild type calreticulin (CALR). The experiment is described as follows: Western blot of cell extracts.
In a further experiment the test system is mutant CALR protein. The experiment can be described thus: Western blot detection of mutant CALR by hybridoma clones. Particulars: cell extracts from TF-1 cells transduced with and without mutant CALR; data not shown. Type of experiment: binding, human. Here is the method: (§3) Rats were immunised with a CALR mutant peptide “MMRTKMRMRRMRRT RRKMRRKMSPARPRTS” coupled to KLH, this peptide sequence is unique to CALR mutant. Serum from the immunised rats was screened by enzyme linked immunoassay, to verify a strong titre to the peptide immunogen, prior to performing the hybridoma fusion. Immunised rat spleen cells were harvested and a spleen single cell suspension was combined with Sp2/O myeloma cell line. The cell mixture was treated with polyethylene glycol plus DMEM prior to been plated in 96 well flat bottom plates. The expanding hybridomas were screened initially by ELISA and the positive clones were further verified by western blot, for reactivity to the expressed CALR mutant protein before subcloning the hybridomas for antibody production.
For immunoblotting of total lysates, cells were lysed in NP40 buffer containing 150 mM NaCl, 50 mM Tris pH 7.6, 1% NP-40, supplemented with protease inhibitors (Complete, Roche) and phosphatase inhibitor cocktails, and boiled for 5 minutes after addition of sample buffer (60 mM Tris pH 6.8, 5% glycerol, 1% SDS, 2% β-mercaptoethanol, 0.02% bromophenol blue) before SDS gel electrophoresis followed by Western blotting (Tvorogov et al, 2010). Primary antibodies against pERK (#9101), pSTAT5 (#9359), ERK (#4695), Actin (#4970), Caspase 3 (#14220), wildtype CALR (#12238) were purchased from Cell Signalling. Primary antibodies against pSTATI (#612233), pSTAT3 (#612357), STATI (#610186), STAT3 (#610190), STAT5 (#610192) and Anti-phosphotyrosine 4G10 (#610012) were purchased from BD Biosciences. Mutant CALR monoclonal antibody CAL2 was purchased from Dianova (Hamburg, Germany). Immunopreciptation of TpoR was performed in standard NP40 lysis buffer with additional 50 mM iodoacetamide to avoid any de novo disulfide bond formation post lysis. To reduce IgG background during immunoprecipitation anti-FLAG conjugated to magnetic beads (Sigma, #M8823) were used. For this same reason, anti-FLAG-HRP conjugated antibodies (Sigma, #A8592) were used in western blotting.
For orientation: In western blotting, separated proteins are transferred to a membrane and probed.

In experiment [8] the test system is 30 amino acid peptide corresponding to the C-terminal mutant CALR neoepitope sequence. The experiment is described as follows: ELISA binding to peptide. Further details: species or system human. Here is the method: as §3
Background: In an ELISA, binding on a coated surface is turned into a signal by an enzyme label.

Experiment [9] has as its target T1, full-length 30 amino acid CALR mutant …. The experiment can be described thus: ELISA on peptide.
The subject of experiment [10] is TF-1 TpoR CALR^del61 cells. The experiment is described as follows: Cell proliferation, trypan blue exclusion. It is filed as cell-based, human. Conditions: 5 or 20 μg/mL; FIG. 8. Here is the method:
[…] Cells were seeded in triplicate and each well was counted in triplicate every 24 hours for 5 days using trypan blue exclusion.

B1: 4D7 rat monoclonal IgG2a anti-mutant calreticulin antibody (antibody, V domains shown)
VH: QVQLQQSGAELAKPGSSVKISCKASGYTFTNYDMSWIKQRPGQALEWIGAINPGNGVTDYNEKFRGKATLTVDKSSSTAFMQLSSLTPEDTAVYHCAREYRDNYGYFDYWGQGVMVTVSS
VL: DIVLTQTPVSLSVTLGDQASISCRSSQSLEYSDGYTYLDWFLQKPGQSPQLLIYEVSSRFSGVPDRFIGRGSGTDFTLKISRVEPEDLGVYYCFQATHDPFTFGSGTKLEIK
notes: also called clone 4D7; clone 4D7 mAb
As for B1, the equilibrium dissociation constant (Kd) – broadly, a measure of binding affinity in units of concentration – in experiment [1] was determined as 1.25 nM; in experiment [2], 1.53 nM; in [4], 1.43 nM; in experiment [6], 1.91 nM. Moreover, the binding result in experiment [3] is “no binding”; in [5] it was “no binding (tested: 4 µg/mL (FIG. 1D legend))”.

B2: 9H11 rat monoclonal anti-mutant calreticulin antibody (antibody, V domains shown)
VH: QVQLQQSGAELTKPGSSVKISCKASGYTFTTYDISWIKQRPGQALEWIGAIYPGGETTGYNEKFKDKATLTVDKSSNTAFMQLSSLTPEDTAVYYCARWGHTTGTRFDHWGQGVMVTVSS
VL: DIVLTQTPVSLSVSLGDQASISCRSSQSLEYSDGYTYLEWYVQKPGQSPQLLIWEVSDRFSGVPDRFIGSGSGTDFTLKISRVEPEDLGVYYCFQATHDPPTFGGGTKLELK
notes: also called rat anti-human mutCALR 9H11
Regarding B2, the binding result in experiment [7] is “no binding”; in experiment [9] it was “binds”. The “detecting mutant but not wild type CALR protein by Western blotting” value in the experiment on mutant CALR protein is recorded as “superior activity”. In experiment [8], the “binding to peptide by ELISA” value is listed as “positive binding”. Besides, in experiment [10], the “proliferation of cytokine-independent TF1 TpoR/mutCALR cells” value is “inhibit proliferation”.

The values above are taken from US20250236667A1, “ANTIBODIES TO MUTANT CALRETICULIN AND USES THEREOF” (CENTRAL ADELAIDE LOCAL HEALTH NETWORK INC, priority 2021, published 2025).
